Reference: patent US12723255B2, “Herbicide tolerance genes and methods of use thereof” (priority 2014, dated 2026)
Where “and” joins values, the source holds several entries; their conditions need not be identical. Identical values can stand only once.

B1: MON-HT51: engineered oxygenase protein, amino acid sequence SEQ ID NO:1 (protein)
chain: MHAALSPLSQRFERIAVQPLTGVLGAEITGVDLREPLSDSTWNEILDAFHTYQVIYFPGQAITNEQHIAFSRRFGPVDPVPLLKSIEGYPEVQMIRREANESGRVIGDDWHTDSSFLDAPPAAVVMRAIDVPEHGGDTGFLSMYTAYDALSDGLKKLISGLNVVHSATRVFGSLYQAQNRRFSNTSVKVMDVADGDRETVHPLVVTHPGSGRKGLYVNQVYCQRIEGMSEKESEPLLSFLFAHATKPEFTCRVRWKKDQVLVWDNLCTMHYAINDYHGQTRILHRTTVGGVRPAR
B2: MON-HT55: engineered oxygenase protein, amino acid sequence SEQ ID NO:11 (protein)
chain: MHAALSPLSQRFERIAVQPLTGVLGAEITGVDLREPLDDSTWNEILDAFHTYQVIYFPGQAITNEQHIAFSRRFGPVDPVPLLKSIEGYPEVQMIRREANESGRVIGENWHTDSTFLDAPPAAVVMYAKEIPPYGGDTLFTSMYTAWETLSPTMQATIEGLNVVHSATRVFGSLYQAQNRRFSNTSVKVMDVDAGDRETVHPLVVTHPETGRKGLYVNQVYCQRIEGMSEKESEPLLSFLFAHATKPEFTCRVRWQEGDVLVWDNLCTQHYAVPDYAGKFRYLTRTTVGGVRPAR

Key:
transgenic maize plants [1] = assay: inbred trait efficacy field trials (R2); type: in vivo; settings: with or without CTP; quizalofop-P 0.16 lb ai/acre PRE, V4, V8
Method: Inbred trait efficacy field trials were conducted to assess tolerance to the AOPP herbicides and sensitivity to the cyclohexanediones (CHD) herbicides in an inbred background. R2 inbred plants were generated by selfing a homozygous transgenic R1 plant and collecting seed. R2 inbred plants containing MON-HT55 with or without a CTP or MON-HT51 with a CTP and were evaluated at two field locations. Herbicide treatment was 2× quizalofop-P at 0.16 lb ai/acre applied PRE (after planting but before emergence) followed by quizalofop-P at 0.16 lb ai/acre applied at V4 growth stage followed by quizalofop-P at 0.16 lb ai/acre applied at V8 growth stage. Plots were rated for crop injury 7-10 days after herbicide application on a scale of 0-100 with zero being no injury and 100 being complete crop death. All data were subjected to analysis of variance and means separated at LSD (0.05). […] To test for sensitivity to CHD herbicides, which is desirable for use in volunteer control, plants were treated with a 1× rate of clethodim (0.25 lb ai/acre) at V8 growth stage. […] The resulting F1 plants containing MON-HT55 (SEQ ID NO:13) with or without a CTP or MON-HT51 (SEQ ID NO: 3) without a CTP were evaluated at six field locations. […] This permitted the engineered protein to be evaluated in maize under high temperature and water stress conditions. […]

transgenic maize plants [2] = assay: R1 trait efficacy field trial (quizalofop-P and haloxyfop); type: in vivo; settings: 2× quizalofop-P pre-plant, 2× haloxyfop V4, 2× quizalofop-P V8
Method: To assess the effect of using a CTP to target the engineered protein to the plant cell chloroplast, transgenic plants comprising a transgene insert with and without a CTP operably linked to the protein-coding sequence were compared. […] This unexpected finding was tested again in trait efficacy field trials with R1 plants comprising either MON-HT51 with or without a CTP operably linked to the protein-coding sequence or MON-HT55 with or without a CTP operably linked to the protein-coding sequence. These R1 plants were single-copy, but were still segregating. In this field trial, seed was planted in the field and treated as follows: 2× (0.16 lb ai/acre) quizalofop-P at pre-plant, 2× (0.14 lb ai/acre) haloxyfop at V4 growth stage, then 2× quizalofop-P at V8 growth stage. A higher percentage of plants comprising a CTP operably linked to the protein-coding sequence survived quizalofop-P and haloxyfop applications and had lower injury scores compared to plants not comprising a CTP operably linked to the protein-coding sequence. This confirmed the unexpected finding that a CTP operably linked to the protein-coding sequence confers higher plant tolerance to herbicide application for the engineered proteins.

Molecule | crop injury of inbred plants (transgenic maize plants [1]) | Average % Herbicide Injury (transgenic maize plants [2]; CTP No) | Average % Herbicide Injury (transgenic maize plants [2]; CTP Yes)
B1 | no injury | 95% | 35%
B2 | no injury | 49% and 90% | 24% and 25%
